Consider one substance from PMC3794917.

The subject of the data set is Rad51. Put plainly: EM. As to conditions: RPA pre-bound to ssDNA, no Rad52, 60 mM NaCl; all filaments complete; Rad52 EMSA: 10 mM Tris-HCl pH 8, 5 mM MgCl2, 100 mM NaCl, 37 C, 10 min, 0.27 uM XV2, 8% native PAGE; filament assays: SEB buffer, 60 mM NaCl (or titrated) …. For orientation: A gel shift assay detects complexes by their altered migration in electrophoresis.

As to 400-nt ssDNA fragment, the binding signal (% of Rad51 filaments formed) was determined as 12.5.
